Entries after “also recorded” stand apart in the source; their conditions may differ.
Legend:
NVSL PRRS virus = experiment: MTT assay, in vitro protection of PAMs or MARC-145 cells from NVSL infection; type: cell-based, PRRSV; conditions: 500 pmole, compared to non-infected MARC-145 cells, FIG. 9b
Protocol: PAMs or MARC-145 cells were plated in 96 well plates (7×10^4/well) one day prior to the assay. Cells were washed twice with Dulbecco's phosphate buffered saline (DPBS) prior to an one (1) hour incubation with Hank's balanced salt solution (HBSS) supplemented with 25 mM HEPES and 4 mM sodium bicarbonate (pH 7.3) including 500TCID50 of LHVA-3 or 500TCID50 of NVSL in the presence or absence of the indicated aptamer concentration. Following infection, cells were incubated in growth medium at 37° C. for 72 hours. MTT assay was performed by adding 4 mg/ml MTT (3-[4,5-Dimethylthiazol-2-yl]-2,5-diphenyltetrazolium bromide dissolved in PBS to the cell cultures and incubation at 37° C. for 3 hours. Plates were then centrifuged at 800×g for 10 min. Supernatants were aspirated and the formazan dye was dissolved in 150 μl/well of isopropyl alcohol, and O.D. values were determined with an ELISA reader at 570 nm.
In Vitro Viral Protection Prior to Viral Infection PAMs or MARC-145 cells were plated on 96 well plates (7×10^4/well) 24 hours prior to the experiment. Each well was washed twice with DPBS prior to treating the cells with various amounts of A505 (12.5 to 2000 pmole) at 37° C. for the indicated time points. Cells were then washed twice with DPBS and infected with 500 TCID50 LHVA-3 (or NVSL or VR-2332 or Lelystad) for 1 hour in enriched HBSS. […]

[1] = test system: type 2 PRRSV (VR2332, LHVA-93-3, NVSL-93-2335); experiment: Strain-specific neutralization (FIG. 11), type 2 strains; type: cell-based
[2] = test system: M-S-S-GP5 peptidic complex; experiment: ELISA reverse screening: binding to M-S-S-GP5 peptidic complex, type 2; conditions: type 2 PRRSV complex
Protocol: ssDNA aptamers were denatured at 80° C. for 10 min and then cooled on ice for 10 min. Aptamers (30 nmole) were mixed with 25 μg of M-S-S-GP5 peptidic complex (further described in Example 6 below) in 500 μl selection buffer (50 mM Tris-HCl; pH 7.4, 5 mM KCl, 100 mM NaCl, 1 mM MgCl2 tRNA, 0.2% BSA) at 37° C. for 30 min. Aptamer-peptide complex was purified by adding the 25 μl Ni-NTA superflow and amplified by PCR using primers directed to the common T3 sequences in the aptamer library, and 3′-primer (i.e. -[…]-3′). SELEX was repeated 3 times, following which amplified nucleotides were transformed into E. coli. PCR conditions for SELEX included 5 min 95° C./1 min 95° C./1 min 55° C./1 min 72° C./10 min 72° C. and 100 pmole of each primer.
Selected ssDNA molecules from each individual clone were biotinylated using the B-T3 which is same sequence with 5′ primer (T3 primer), and Klenow fragment (2 unit/ml). To prepare single stranded biotin conjugated CoocSeq5 aptamer for the reverse screening, T3 Primer was Biotin labelled. A 96-well flat bottom ELISA plate was prepared by coating each well with 100 μl of streptavidin (100 μg/ml) diluted in 0.1 M NaHCO3 following by a 37° C. overnight incubation. Following several washings with PBS, wells were blocked with 200 μl of PBS containing 1% BSA for 2 hours at room temperature and subsequent washing three times with PBS-T (10 mM PBS containing 0.05% (v/v) Tween-20). […]
High binding capacity ELISA plates (Immunoplate, Nunc) were coated with 100 μl allantoic fluid containing 500 TCID50 of various PRRS virus strains diluted in phosphate buffered saline (PBS) by incubating at 4° C. overnight. […] Following this incubation period, plates were washed five times in PBS-T and bound antibodies were detected using horseradish peroxidase labelled goat anti-mouse IgG conjugates (HRP). […] Reaction was terminated with 50 μl of 2M H2SO4, plates were read with a multichannel spectrophotometer at 570 nm.

MARC-145 cells = conditions: no virus; FIG. 10c
various PRRSV strains = experiment: In-vivo protection of swine against various PRRSV strains (Example 4); conditions: 15 ug/Kg, treatment on the day of infection; each strain 40TCID50/ml; FIG. 13a
Protocol: Swine were inoculated intranasally with sub-lethal infectious fluid containing 40TCID50/ml PRRS virus (LHVA-93-3) with or without 2.5 nmole A505 aptamer for different time intervals. Pig body weight was monitored for 2 weeks. Viral titer in the lungs was determined by the CPE titration method (OIE Terrestrial Manual—May 2015, Chapter 2.8.7—Porcine Reproductive and Respiratory Syndrome, section 1.1.3). Other pigs were sacrificed 6 days following viral inoculation and lungs were removed and homogenized in PBS 0.1% BSA (10% w/v). Following homogenization, samples were centrifuged to remove debris and stored at −80° C.
The cells/viruses were incubated for 2-5 days and observe daily for a CPE. At day 2, seed macrophages in new microtitre plates. Fifty (50) μl of the supernatants were transferred from the plates of the first passage to the corresponding wells of the freshly seeded plates (second passage). The wells were incubated for 2-5 days and observed daily for a CPE. The results of the CPE assays were presented as log TCID50.
Were implemented as described hereinabove. A dose of 15 ug/Kg of A505 was used.

[3] = test system: type-1 Lelystad PRRS virus; experiment: Strain-specific neutralization (FIG. 11), type 1 strain; type: cell-based, PRRSV
Protocol: In Vitro Viral Protection Prior to Viral Infection PAMs or MARC-145 cells were plated on 96 well plates (7×10^4/well) 24 hours prior to the experiment. Each well was washed twice with DPBS prior to treating the cells with various amounts of A505 (12.5 to 2000 pmole) at 37° C. for the indicated time points. Cells were then washed twice with DPBS and infected with 500 TCID50 LHVA-3 (or NVSL or VR-2332 or Lelystad) for 1 hour in enriched HBSS. Following incubation, cells were transferred to growth medium and incubated at 37° C. for 72 hours. Thereafter an MTT assay was implemented as described.

LHVA-93-3 PRRS virus = experiment: Light microscopy and immunofluorescence of infected cells; type: cell-based, PRRSV
type 2 PRRSV = conditions: after MTT screening of 10 candidates
Text: Using various tetrazolium (MTT) colorimetric assay procedures^[xxxvi], these aptamers have been “screened” to identify the ones having the highest and fastest binding capabilities for detection and therapeutics purposes for both types of PRRSV. It should be pointed out that the aptamer having the quickest binding efficiency but not necessarily the highest binding strength is the most suitable one for the biosensor.

B1: A505: ssDNA aptamer binding type 2 PRRSV M-S-S-GP5 complex (nucleic acid)
DNA: GGGCGACCCTGAAGAGTTTGTAATCTGCGATTTTAAAGTTGAGTCGTCGCGAAACGGTGAAAGCCGTAGGTTGCCC
modifications: DNA, backbone and methylation of C not given here
NVSL PRRS virus
  protection against infection of the cells: ~70%
[1]
  neutralization of PRRS virus strains: only the type 2 PRRSV have been neutralized
[2]
  binding to the M-S-S-GP5 complex/heterodimer: highly significant differences from the control ssDNA; also recorded: binding capacity to the M-S-S-GP5 complex; also recorded: found to bind the M-S-S-GP5 heterodimer
MARC-145 cells
  morphology of cells treated with aptamer alone: did not affect the morphology of the cells
Various PRRSV strains
  prevention of infection (lung virus titer) by various strains: efficient in preventing the infection by all tested strains of PRRSV
[3]
  effect on type-1 Lelystad PRRS virus: has not effect
LHVA-93-3 PRRS virus; MARC-145 cells, virus in the presence of aptamer, FIG. 10b
  cell morphology of infected cells, light microscopy: destruction was inhibited and the cell morphology was largely conserved
LHVA-93-3 PRRS virus; two days incubation with virus and aptamer, FIG. 10e
  viral presence by immunofluorescence: almost entirely prevented
Type 2 PRRSV
  binding capabilities from biosensing and therapeutic perspectives: highest binding capabilities

Reference: patent publication US11001846B2, “Aptamers, nucleic acid molecules, polynucleotides, synthetic antibodies compositions for detecting PRRS viruses and treating PRRS virus infection” (AEROVIRUS TECHNOLOGIES INC., priority 2015, dated 2021)
